These results are taken from PMC11672684 (Cell Reports, 2024).

Experiment [1] addresses T1, H1 A/New Caledonia/20/1999 HA (influenza A virus A/New …). The experiment in a line: ELISA + BLI. The settings on record: both partners purified. On the technique in general: In an ELISA, binding on a coated surface is turned into a signal by an enzyme label.
Experiment [2] concerns the target T1, H1 A/New Caledonia/20/1999 HA. The experiment in a line: cryo-EM structure. The settings on record: both partners purified.

B1: 43_S0008 (antibody, V domains shown)
VH: QVQLVQSGAEVKKPGSSVKVSCKASGGTFRTFGISWVRQAPGQGLEWMGWIIPIIGTPNYAQKFQGRVIITADESSNTAYMELNSLKSEDTAVYYCAKEGRALLRYFDWLPLDAFDIWGQGTMVTVSS
VL: DIVLTQTPLSLPVSLGDQASISCRSSQSLVHSDGNTYLHWYLQKPGQSPKLLIYKVSNRFSGVPDRFSGSGSGTDFTLKISRVEAEDLGVYFCSQSTHVPPLTFGAGTKLELK
notes: also called mAb 43_S0008; IGHV1-69 + IGHD3-9 mAb 43_S0008; source: Expi293 cells, purified (protein A)
Take B1: the binding result in experiment [1] is given as “binds”.

B2: Fab 43_S0008 (Fab, V domains shown)
VH: QVQLVQSGAEVKKPGSSVKVSCKASGGTFRTFGISWVRQAPGQGLEWMGWIIPIIGTPNYAQKFQGRVIITADESSNTAYMELNSLKSEDTAVYYCAKEGRALLRYFDWLPLDAFDIWGQGTMVTVSS
VL: DIVLTQTPLSLPVSLGDQASISCRSSQSLVHSDGNTYLHWYLQKPGQSPKLLIYKVSNRFSGVPDRFSGSGSGTDFTLKISRVEAEDLGVYFCSQSTHVPPLTFGAGTKLELK
notes: also called 43_S0008 Fab
Take B2: in experiment [2], the binding result is on record as “binds”.
